Key:
Assay in all cases: SPR Biacore T100, 21-4-3 captured on anti-mouse IgG, 500 nM analyte
SEQ ID NO: 81 = target: T1, SEQ ID NO: 81
T1 construct: L11V
Procedure: (§1) Binding measurements were performed using a Biacore T100 using a CM5 T120416 sensor chip, with running buffer HBS-EP+, 25° C. […] The anti-mouse IgG used was a polyclonal rabbit anti-mouse IgG antibodies reacting with all IgG subclasses, IgA and IgM (GE Healthcare; Cat #BR-1008-38; Lot #10056316). Immobilisation of the anti-mouse IgG was performed using manual amine coupling using a 7 minute injection of EDC/NHS for activation and a 7 minute injection of 1M ethanolamine HCl pH 8.5 for deactivation (Biacore, amine coupling kit).

SEQ ID NO: 84 = target: T2, SEQ ID NO: 84
T2 construct: S112G
Procedure: as §1

SEQ ID NO: 68 = target: T3, SEQ ID NO: 68
T3 construct: P14A, L108Q
Procedure: as §1

SEQ ID NO: 59 = target: T4, SEQ ID NO: 59
T4 construct: no mutations
Procedure: as §1

SEQ ID NO: 49 = target: T5, SEQ ID NO: 49
T5 construct: V5L, I23A, E44G, A49S, A68T, A74S, T78L, W79Y, K83R, T110Q, Q108L
Procedure: as §1

SEQ ID NO: 85 = target: T6, SEQ ID NO: 85
T6 construct: L11S, T110Q, S112G, S113G
Procedure: as §1

SEQ ID NO: 71 = target: T7, SEQ ID NO: 71
T7 construct: S113G
Procedure: as §1

SEQ ID NO: 78 = target: T8, SEQ ID NO: 78
T8 construct: Q13R
Procedure: as §1

SEQ ID NO: 80 = target: T9, SEQ ID NO: 80
T9 construct: T110Q, S112G, S113G
Procedure: as §1

SEQ ID NO: 66 = target: T10, SEQ ID NO: 66
T10 construct: L11S
Procedure: as §1

SEQ ID NO: 87 = target: T11, SEQ ID NO: 87
T11 construct: L11S, S112G, S113G
Procedure: as §1

SEQ ID NO: 88 = target: T12, SEQ ID NO: 88
T12 construct: L11S, T110Q
Procedure: as §1

SEQ ID NO: 42 = target: T13, SEQ ID NO: 42
T13 construct: no mutations
Procedure: as §1

SEQ ID NO: 47 = target: T14, SEQ ID NO: 47
T14 construct: no mutations
Procedure: as §1

SEQ ID NO: 79 = target: T15, SEQ ID NO: 79
T15 construct: no mutations
Procedure: as §1

SEQ ID NO: 52 = target: T16, SEQ ID NO: 52
T16 construct: S112G
Procedure: as §1

SEQ ID NO: 70 = target: T17, SEQ ID NO: 70
T17 construct: T110Q
Procedure: as §1

SEQ ID NO: 40 = target: T18, SEQ ID NO: 40
T18 construct: no mutations
Procedure: as §1

SEQ ID NO: 43 = target: T19, SEQ ID NO: 43
T19 construct: no mutations
Procedure: as §1

SEQ ID NO: 44 = target: T20, SEQ ID NO: 44
T20 construct: no mutations
Procedure: as §1

SEQ ID NO: 64 = target: T21, SEQ ID NO: 64
T21 construct: no mutations
Procedure: as §1

SEQ ID NO: 55 = target: T22, SEQ ID NO: 55
T22 construct: no mutations
Procedure: as §1

SEQ ID NO: 89 = target: T23, SEQ ID NO: 89
T23 construct: L11S, P14A, T110Q, S112G, S113G
Procedure: as §1

SEQ ID NO: 38 = target: T24, SEQ ID NO: 38
T24 construct: no mutations
Procedure: as §1

SEQ ID NO: 75 = target: T25, SEQ ID NO: 75
T25 construct: no mutations
Procedure: as §1

SEQ ID NO: 83 = target: T26, SEQ ID NO: 83
T26 construct: T87A
Procedure: as §1

SEQ ID NO: 60 = target: T27, SEQ ID NO: 60
T27 construct: no mutations
Procedure: as §1

SEQ ID NO: 86 = target: T28, SEQ ID NO: 86
T28 construct: L11S, T110Q
Procedure: as §1

SEQ ID NO: 69 = target: T29, SEQ ID NO: 69
T29 construct: L108Q
Procedure: as §1

SEQ ID NO: 62 = target: T30, SEQ ID NO: 62
T30 construct: no mutations
Procedure: as §1

SEQ ID NO: 72 = target: T31, SEQ ID NO: 72
T31 construct: S112G, S113G
Procedure: as §1

SEQ ID NO: 63 = target: T32, SEQ ID NO: 63
T32 construct: no mutations
Procedure: as §1

SEQ ID NO: 65 = target: T33, SEQ ID NO: 65
T33 construct: P14A
Procedure: as §1

SEQ ID NO: 58 = target: T34, SEQ ID NO: 58
T34 construct: no mutations
Procedure: as §1

SEQ ID NO: 82 = target: T35, SEQ ID NO: 82
T35 construct: P84A
Procedure: as §1

SEQ ID NO: 74 = target: T36, SEQ ID NO: 74
T36 construct: no mutations
Procedure: as §1

SEQ ID NO: 48 = target: T37, SEQ ID NO: 48
T37 construct: no mutations
Procedure: as §1

SEQ ID NO: 57 = target: T38, SEQ ID NO: 57
T38 construct: no mutations
Procedure: as §1

SEQ ID NO: 77 = target: T39, SEQ ID NO: 77
T39 construct: no mutations
Procedure: as §1

SEQ ID NO: 39 = target: T40, SEQ ID NO: 39
T40 construct: no mutations
Procedure: as §1

SEQ ID NO: 45 = target: T41, SEQ ID NO: 45
T41 construct: P14A, P41T, S62F, S74A, S82bN, R83K, L108Q
Procedure: as §1

SEQ ID NO: 41 = target: T42, SEQ ID NO: 41
T42 construct: no mutations
Procedure: as §1

SEQ ID NO: 76 = target: T43, SEQ ID NO: 76
T43 construct: no mutations
Procedure: as §1

SEQ ID NO: 61 = target: T44, SEQ ID NO: 61
T44 construct: no mutations
Procedure: as §1

SEQ ID NO: 37 = target: T45, SEQ ID NO: 37
T45 construct: no mutations
Procedure: as §1

SEQ ID NO: 67 = target: T46, SEQ ID NO: 67
T46 construct: R83K
Procedure: as §1

SEQ ID NO: 73 = target: T47, SEQ ID NO: 73
T47 construct: S112G, S113G
Procedure: as §1

T11 sequence (VHH, as listed by the source): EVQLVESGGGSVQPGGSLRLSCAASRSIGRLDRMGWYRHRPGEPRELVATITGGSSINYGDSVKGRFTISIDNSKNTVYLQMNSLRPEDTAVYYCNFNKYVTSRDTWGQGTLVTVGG
T6 sequence (VHH, as listed by the source): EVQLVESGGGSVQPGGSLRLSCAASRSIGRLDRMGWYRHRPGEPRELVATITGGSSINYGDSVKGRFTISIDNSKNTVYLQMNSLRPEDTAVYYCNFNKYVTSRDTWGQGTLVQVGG
T33 sequence (VHH, as listed by the source): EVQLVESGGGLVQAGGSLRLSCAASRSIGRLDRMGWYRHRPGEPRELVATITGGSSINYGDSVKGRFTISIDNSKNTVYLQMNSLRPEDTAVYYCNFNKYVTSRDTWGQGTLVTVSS
T10 sequence (VHH, as listed by the source): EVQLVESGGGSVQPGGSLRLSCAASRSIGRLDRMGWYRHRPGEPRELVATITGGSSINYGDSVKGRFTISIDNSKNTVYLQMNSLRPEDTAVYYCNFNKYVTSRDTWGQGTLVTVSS
T40 sequence (chain, as listed by the source): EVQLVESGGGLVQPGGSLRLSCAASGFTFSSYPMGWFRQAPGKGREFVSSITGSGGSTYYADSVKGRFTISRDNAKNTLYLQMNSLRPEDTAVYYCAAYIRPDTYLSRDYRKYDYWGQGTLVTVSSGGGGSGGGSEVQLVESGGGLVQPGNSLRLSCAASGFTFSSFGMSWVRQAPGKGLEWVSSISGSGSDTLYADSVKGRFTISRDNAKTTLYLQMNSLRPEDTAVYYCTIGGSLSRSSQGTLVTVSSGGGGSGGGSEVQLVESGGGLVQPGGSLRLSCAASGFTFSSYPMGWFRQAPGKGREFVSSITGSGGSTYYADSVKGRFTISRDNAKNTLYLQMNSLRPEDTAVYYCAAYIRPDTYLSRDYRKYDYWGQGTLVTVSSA
T2 sequence (VHH, as listed by the source): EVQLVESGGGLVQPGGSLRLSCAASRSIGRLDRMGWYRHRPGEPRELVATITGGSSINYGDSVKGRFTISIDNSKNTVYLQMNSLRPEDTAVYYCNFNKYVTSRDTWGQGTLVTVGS
T32 sequence (chain, as listed by the source): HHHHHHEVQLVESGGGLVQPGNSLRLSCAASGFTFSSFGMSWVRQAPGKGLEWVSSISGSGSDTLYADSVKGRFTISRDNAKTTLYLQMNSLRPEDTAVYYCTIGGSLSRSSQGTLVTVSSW
T16 sequence (chain, as listed by the source): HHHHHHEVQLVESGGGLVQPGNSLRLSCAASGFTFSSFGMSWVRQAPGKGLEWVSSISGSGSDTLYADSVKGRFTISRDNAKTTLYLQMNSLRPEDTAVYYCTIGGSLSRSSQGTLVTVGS
T23 sequence (VHH, as listed by the source): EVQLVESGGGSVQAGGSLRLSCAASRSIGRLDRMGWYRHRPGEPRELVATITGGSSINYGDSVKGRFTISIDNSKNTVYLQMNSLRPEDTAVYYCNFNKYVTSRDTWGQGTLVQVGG
T1 sequence (VHH, as listed by the source): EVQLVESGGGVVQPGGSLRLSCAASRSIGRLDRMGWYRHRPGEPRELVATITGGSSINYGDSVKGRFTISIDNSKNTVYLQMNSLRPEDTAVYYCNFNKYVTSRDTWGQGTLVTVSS
T13 sequence (chain, as listed by the source): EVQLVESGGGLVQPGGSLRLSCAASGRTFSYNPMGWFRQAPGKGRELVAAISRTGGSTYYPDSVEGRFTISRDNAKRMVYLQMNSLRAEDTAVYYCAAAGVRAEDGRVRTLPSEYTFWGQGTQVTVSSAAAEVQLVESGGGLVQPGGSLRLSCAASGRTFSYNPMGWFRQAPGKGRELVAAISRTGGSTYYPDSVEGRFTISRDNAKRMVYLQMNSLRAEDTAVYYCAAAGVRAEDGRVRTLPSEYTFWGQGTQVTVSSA
T4 sequence (chain, as listed by the source): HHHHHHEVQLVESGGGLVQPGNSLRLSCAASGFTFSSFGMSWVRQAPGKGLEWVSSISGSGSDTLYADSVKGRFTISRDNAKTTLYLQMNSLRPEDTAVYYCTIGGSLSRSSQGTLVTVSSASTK
T38 sequence (chain, as listed by the source): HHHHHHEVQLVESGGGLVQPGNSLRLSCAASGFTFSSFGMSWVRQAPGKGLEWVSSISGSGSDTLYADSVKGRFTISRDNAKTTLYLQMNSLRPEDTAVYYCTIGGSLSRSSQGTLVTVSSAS
T7 sequence (VHH, as listed by the source): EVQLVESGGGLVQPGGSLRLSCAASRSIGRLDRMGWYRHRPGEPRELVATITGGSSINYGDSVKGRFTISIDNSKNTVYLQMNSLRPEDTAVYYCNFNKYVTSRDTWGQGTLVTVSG
T46 sequence (VHH, as listed by the source): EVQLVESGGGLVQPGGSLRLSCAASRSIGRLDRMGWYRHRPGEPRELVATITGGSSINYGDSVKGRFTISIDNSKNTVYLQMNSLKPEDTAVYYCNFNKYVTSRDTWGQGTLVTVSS
T41 sequence (VHH, as listed by the source): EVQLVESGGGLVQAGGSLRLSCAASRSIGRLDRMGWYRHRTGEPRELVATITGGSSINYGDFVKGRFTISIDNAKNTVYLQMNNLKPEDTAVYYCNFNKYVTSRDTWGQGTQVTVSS
T42 sequence (chain, as listed by the source): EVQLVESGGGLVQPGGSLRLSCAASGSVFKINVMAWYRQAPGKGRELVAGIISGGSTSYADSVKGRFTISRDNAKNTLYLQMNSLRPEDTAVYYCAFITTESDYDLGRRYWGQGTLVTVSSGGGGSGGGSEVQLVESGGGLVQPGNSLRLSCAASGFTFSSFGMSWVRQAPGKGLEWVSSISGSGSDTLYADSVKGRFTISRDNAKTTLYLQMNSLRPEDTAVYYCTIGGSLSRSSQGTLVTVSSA
T44 sequence (chain, as listed by the source): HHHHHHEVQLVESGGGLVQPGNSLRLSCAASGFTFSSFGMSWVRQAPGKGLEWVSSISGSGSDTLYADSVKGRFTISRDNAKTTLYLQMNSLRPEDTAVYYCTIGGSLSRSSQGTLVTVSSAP
T25 sequence (VHH, as listed by the source): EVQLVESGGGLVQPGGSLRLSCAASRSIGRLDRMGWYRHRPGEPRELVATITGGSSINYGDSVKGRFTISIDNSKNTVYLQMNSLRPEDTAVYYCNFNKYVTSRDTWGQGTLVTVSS
T14 sequence (VHH, as listed by the source): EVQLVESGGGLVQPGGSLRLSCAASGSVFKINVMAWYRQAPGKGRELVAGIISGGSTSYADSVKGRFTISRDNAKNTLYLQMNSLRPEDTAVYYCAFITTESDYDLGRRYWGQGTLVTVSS
T20 sequence (chain, as listed by the source): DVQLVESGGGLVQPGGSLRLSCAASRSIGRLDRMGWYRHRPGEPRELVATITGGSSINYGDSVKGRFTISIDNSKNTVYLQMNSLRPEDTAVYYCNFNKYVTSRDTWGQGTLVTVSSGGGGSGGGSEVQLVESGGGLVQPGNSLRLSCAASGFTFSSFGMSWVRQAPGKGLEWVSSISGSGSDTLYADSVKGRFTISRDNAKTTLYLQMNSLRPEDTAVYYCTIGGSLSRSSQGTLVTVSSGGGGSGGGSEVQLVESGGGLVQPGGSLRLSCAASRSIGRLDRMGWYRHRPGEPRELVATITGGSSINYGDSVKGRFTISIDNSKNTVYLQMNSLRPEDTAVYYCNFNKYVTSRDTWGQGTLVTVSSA
T26 sequence (VHH, as listed by the source): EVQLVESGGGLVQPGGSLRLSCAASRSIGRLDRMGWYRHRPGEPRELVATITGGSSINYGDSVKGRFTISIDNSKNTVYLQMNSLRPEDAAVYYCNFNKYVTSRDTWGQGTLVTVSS
T3 sequence (VHH, as listed by the source): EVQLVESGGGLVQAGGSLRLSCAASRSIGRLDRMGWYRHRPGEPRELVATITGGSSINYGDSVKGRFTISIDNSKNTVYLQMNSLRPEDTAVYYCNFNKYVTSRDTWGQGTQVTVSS
T9 sequence (VHH, as listed by the source): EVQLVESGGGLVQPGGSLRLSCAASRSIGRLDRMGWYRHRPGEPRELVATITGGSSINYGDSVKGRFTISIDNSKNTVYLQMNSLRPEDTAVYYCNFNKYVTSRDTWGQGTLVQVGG
T34 sequence (chain, as listed by the source): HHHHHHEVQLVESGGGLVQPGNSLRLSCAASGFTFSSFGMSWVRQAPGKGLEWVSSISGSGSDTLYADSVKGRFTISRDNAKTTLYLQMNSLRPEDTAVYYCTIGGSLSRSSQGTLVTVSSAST
T30 sequence (chain, as listed by the source): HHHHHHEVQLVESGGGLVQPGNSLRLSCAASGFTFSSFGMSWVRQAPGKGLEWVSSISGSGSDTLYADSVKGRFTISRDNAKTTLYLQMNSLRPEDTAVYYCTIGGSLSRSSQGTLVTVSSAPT

B1: monoclonal antibody 21-4-3 (antibody, V domains shown)
VH: QIQLVQSGPELKKPGETVKISCKASGYTFTAYSMHWVKQAPGKGLKWMGWINTVTGEPAYADDFKGRFAFSLETSASTAYLQISSLKNEDTATYFCTRGLIHFYYWGQGTTLTVSS
VL: DIQMTQTPSSLSASLGGRVTITCKASQDIHNFISWYQHKPGKVPRLIIHDTSTLQPGIPSRFSGSGSGRDYSFSITNLEPEDIATYYCLHYDNLLRSFGGGTKLEIKR
notes: also called mAb21-4-3; mAb 21-4-3
B1 was tested, and the “binding level as % of reference sequence (=100%)” value (shortened to “binding level as %”) (SEQ ID NO: 81) was 75%, the “binding level as %” value (SEQ ID NO: 84) was 91% and the “binding level as %” value (SEQ ID NO: 68) was 26%. The “binding level as %” value (SEQ ID NO: 59) was 6%, the “binding level as %” value (SEQ ID NO: 49) was 4% and the “binding level as %” value (SEQ ID NO: 85) was 32%. The “binding level as %” value (SEQ ID NO: 71) was 44%, the “binding level as %” value (SEQ ID NO: 78) was 1% and the “binding level as %” value (SEQ ID NO: 80) was 51%. For the same binder, the “binding level as %” value (SEQ ID NO: 66) was 48%, the “binding level as %” value (SEQ ID NO: 87) was 41% and the “binding level as %” value (SEQ ID NO: 88) was 1%. The “binding level as %” value (SEQ ID NO: 42) was 0%, the “binding level as %” value (SEQ ID NO: 47) was 4% and the “binding level as %” value (SEQ ID NO: 79) was 2%. For the same binder, the “binding level as %” value (SEQ ID NO: 52) was 100%, the “binding level as %” value (SEQ ID NO: 70) was 106% and the “binding level as %” value (SEQ ID NO: 40) was 1%. For the same binder, the “binding level as %” value (SEQ ID NO: 43) was 3%, the “binding level as %” value (SEQ ID NO: 44) was 1% and the “binding level as %” value (SEQ ID NO: 64) was 6%. For the same binder, the “binding level as %” value (SEQ ID NO: 55) was 6%, the “binding level as %” value (SEQ ID NO: 89) was 2% and the “binding level as %” value (SEQ ID NO: 38) was 0%. For the same binder, the “binding level as %” value (SEQ ID NO: 75) was 1%, the “binding level as %” value (SEQ ID NO: 83) was 79% and the “binding level as %” value (SEQ ID NO: 60) was 6%. For the same binder, the “binding level as %” value (SEQ ID NO: 86) was 64%, the “binding level as %” value (SEQ ID NO: 69) was 106% and the “binding level as %” value (SEQ ID NO: 62) was 6%. For the same binder, the “binding level as %” value (SEQ ID NO: 72) was 45%, the “binding level as %” value (SEQ ID NO: 63) was 3% and the “binding level as %” value (SEQ ID NO: 65) was 23%. The “binding level as %” value (SEQ ID NO: 58) was 6%, the “binding level as %” value (SEQ ID NO: 82) was 56% and the “binding level as %” value (SEQ ID NO: 74) was 1%. For the same binder, the “binding level as %” value (SEQ ID NO: 48) was 3%, the “binding level as %” value (SEQ ID NO: 57) was 6% and the “binding level as %” value (SEQ ID NO: 77) was 1%. For the same binder, the “binding level as %” value (SEQ ID NO: 39) was 0%, the “binding level as %” value (SEQ ID NO: 45) was 22% and the “binding level as %” value (SEQ ID NO: 41) was 7%. The “binding level as %” value (SEQ ID NO: 76) was 2%, the “binding level as %” value (SEQ ID NO: 61) was 6% and the “binding level as %” value (SEQ ID NO: 37) was 7%. For the same binder, the “binding level as %” value (SEQ ID NO: 67) was 101% and the “binding level as %” value (SEQ ID NO: 73) was 1%.

— patent US20230242620A1 (published 2023)
